Values quoted from earlier work in publication PMC12071589.

Biological target: TROP2 (Homo sapiens) (UniProt P09758)
Sequence (P09758 27-274): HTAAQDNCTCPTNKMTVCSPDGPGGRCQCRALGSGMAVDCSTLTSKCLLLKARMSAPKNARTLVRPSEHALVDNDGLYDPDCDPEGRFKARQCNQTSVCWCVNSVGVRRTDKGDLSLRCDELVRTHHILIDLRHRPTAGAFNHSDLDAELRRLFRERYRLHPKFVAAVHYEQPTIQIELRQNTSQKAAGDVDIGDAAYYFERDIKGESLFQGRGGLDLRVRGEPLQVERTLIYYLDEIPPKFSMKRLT

## sacituzumab
  Kd: 0.26 nM
